From patent US20230159661A1 (published 2023) come the findings set out here.

Read-outs that look alike come from different tables or passages of the source.

Assay [1] addresses T1, human EGFR soluble extracellular region with C-terminal poly-histidine tag (hEGFR) (UniProt P00533 25-638). Briefly: SPR.
In assay [2] the target is T1, human EGFR soluble extracellular region …. The assay can be described thus: SPR. The source holds these as a separate data set.

B1: 10E6-best-fit (antibody, V domains shown)
VH: QVQLQESGPGLVKPSQTLSLTCTVSGYSLTSDYAWSWIRQPPGKGLEWMVYITYSGITTYNPSLKSRITISRDTSKNQFSLKLSSVTAADTAVYYCAGGDYGLSSWFAYWGQGTTVTVSS
VL: EIVLTQSPDFQSVTPKEKVTITCRASQSISNYLHWYQQKPDQSPKLLIKYASQSISGVPSRFSGSGSGTDFTLTINSLEAEDAATYFCQQSNNWPYTFGQGTKLEIKR
In turn, B1 showed a Kd in assay [1] of 20.1 nM.

B2: 10E6 chimeric antibody (antibody, V domains shown)
VH: DVQLQESGPGRVKPSQSLSLTCTVTGYSLTSDYAWSWIRQFPGNRLEWMVYITYSGITTYNPSLKSRISITRDTSKNQFFLQLNSVTTEDTATYYCAGGDYGLSSWFAYWGQGTLVTVSS
VL: DIVLTQSPVTLSVTPGDRVSLSCRASQSISNYLHWYQQKSHESPRLLIKYASQSISGIPSRFSGSGSGTDFTLSINSVETEDFGMYFCQQSNNWPYTFGGGTKLEIKR
As for B2, binding in assay [2] was put at a Kd of 10.8 nM.

B3: 10E6-stable (antibody, V domains shown)
VH: EVQLVESGGGLVQPGGSLRLSCAVSGYSLTSDYAWSWIRQAPGKGLEWMVYITYSGITTYNPSLKSRITISRDTSKNTFYLQMNSLRAEDTAVYYCAGGDYGLSSWFAYWGQGTMVTVSS
VL: DIQLTQSPSSLSASVGDRVTITCRASQSISNYLHWYQQKPGKAPKLLIKYASQSISGVPSRFSGSGSGTDFTLTISSLQPEDFATYFCQQSNNWPYTFGQGTKVEIKR
On to B3, for which the Kd in assay [1] came to 14.5 nM.

B4: 3A6 chimeric antibody (antibody, V domains shown)
VH: QVQLKQSGPGLVQPSQSLSITCTVSGFSLTSYGVHWVRQSPGKGLEWLGVIWSGGTTDYNAAFISRLSISQDNSKSQVFFKMNSLQANDTAIYYCAGNQGRTVRPTWFAYWGQGTLVTVSS
VL: DILLTQSPAILSVSPGERVSFSCRASQSIGTSIHWYQQRANGSPRLLIKYASESISGIPSRFSGSGSGTDFTLSINSVESEDIAHYYCQQNSNWPLTFGAGTKLELKR
Regarding B4, the equilibrium dissociation constant (Kd) in assay [2] worked out at 346 nM.
